The target in test [1] is cyno-BCMA-Fc (cyno (monkey)). As to the kind of experiment: ELISA (OD450), GSK2857916 titrated up to 10 µg/mL on Monkey BCMA-Fc; EC50 table in the figure.
Test [2] deals with cyno-BCMA-His (cyno (monkey)). As to the kind of experiment: ELISA (OD450), GSK2857916 titrated up to 10 µg/mL on Monkey BCMA-His; EC50 table in the figure.
The target in test [3] is human-BAFF-Fc (human), Q9Y275. As to the kind of experiment: ELISA (OD450), plate coated with BAFF 4 µg/ml, human BCMA titrated up to 10 µg/mL; EC50 table in the figure. The following applies: remark: other sources report otherwise.
For test [4], the target named is human-BAFF-Fc (human), Q9Y275. Nature of the test: ELISA (OD450), plate coated with BAFF 2 µg/ml, human BCMA titrated up to 10 µg/mL; EC50 table in the figure. The following applies: remark: other sources report otherwise.
The target of test [5] is human-BAFF-Fc (human), Q9Y275. As to the kind of experiment: ELISA (OD450), plate coated with BAFF 8 µg/ml, human BCMA titrated up to 10 µg/mL; EC50 table in the figure. The following applies: remark: other sources report otherwise.
Test [6] addresses human-BAFF-Fc (human), Q9Y275. Nature of the test: ELISA (OD450), plate coated with BAFF 1 µg/ml, human BCMA titrated up to 10 µg/mL; EC50 table in the figure. The following applies: remark: other sources report otherwise.

human-BAFF-Fc (human), Q9Y275, sequence (Q9Y275 134-285 limits assumed): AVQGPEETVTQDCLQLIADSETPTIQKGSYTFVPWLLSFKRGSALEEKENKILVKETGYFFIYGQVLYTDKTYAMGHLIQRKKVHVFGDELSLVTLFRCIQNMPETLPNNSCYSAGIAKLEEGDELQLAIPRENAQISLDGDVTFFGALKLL

B1: GSK2857916 (positive control antibody, not coupled to the toxin molecule) (antibody, V domains shown)
VH: QVQLVQSGAEVKKPGSSVKVSCKASGGTFSNYWMHWVRQAPGQGLEWMGATYRGHSDTYYNQKFKGRVTITADKSTSTAYMELSSLRSEDTAVYYCARGAIYDGYDVLDNWGQGTLVTVSS
VL: DIQMTQSPSSLSASVGDRVTITCSASQDISNYLNWYQQKPGKAPKLLIYYTSNLHSGVPSRFSGSGSGTDFTLTISSLQPEDFATYYCQQYRKLPWTFGQGTKLEIK
For B1, the values for the EC50 in test [1] and in test [2] were 0.336 µg/mL and 0.463 µg/mL, respectively.

B2: human BCMA (recombinant antigen, tag not stated for the assay), Q02223 1-54 (receptor, UniProt Q02223 1-54, looked up)
chain: MLQMAGQCSQNEYFDSLLHACIPCQLRCSSNTPPLTCQRYCNASVTNSVKGTNA
Regarding B2, the half-maximal effective concentration (EC50) in test [3] was found to be 0.559 µg/mL; in test [4], 0.553 µg/mL; in test [5] it was 0.697 µg/mL; in test [6] it was 0.586 µg/mL.

The values above are taken from patent US20240052048A1.
